In the supplement of paper PMC6379048 one finds Kd data, which are given here for two sequences.

What all share (assay): Kd (EC50 corrected by depletion factor)
The target of one data set is T1, TFIP11 (UniProt Q9UBB9).
T1 sequence: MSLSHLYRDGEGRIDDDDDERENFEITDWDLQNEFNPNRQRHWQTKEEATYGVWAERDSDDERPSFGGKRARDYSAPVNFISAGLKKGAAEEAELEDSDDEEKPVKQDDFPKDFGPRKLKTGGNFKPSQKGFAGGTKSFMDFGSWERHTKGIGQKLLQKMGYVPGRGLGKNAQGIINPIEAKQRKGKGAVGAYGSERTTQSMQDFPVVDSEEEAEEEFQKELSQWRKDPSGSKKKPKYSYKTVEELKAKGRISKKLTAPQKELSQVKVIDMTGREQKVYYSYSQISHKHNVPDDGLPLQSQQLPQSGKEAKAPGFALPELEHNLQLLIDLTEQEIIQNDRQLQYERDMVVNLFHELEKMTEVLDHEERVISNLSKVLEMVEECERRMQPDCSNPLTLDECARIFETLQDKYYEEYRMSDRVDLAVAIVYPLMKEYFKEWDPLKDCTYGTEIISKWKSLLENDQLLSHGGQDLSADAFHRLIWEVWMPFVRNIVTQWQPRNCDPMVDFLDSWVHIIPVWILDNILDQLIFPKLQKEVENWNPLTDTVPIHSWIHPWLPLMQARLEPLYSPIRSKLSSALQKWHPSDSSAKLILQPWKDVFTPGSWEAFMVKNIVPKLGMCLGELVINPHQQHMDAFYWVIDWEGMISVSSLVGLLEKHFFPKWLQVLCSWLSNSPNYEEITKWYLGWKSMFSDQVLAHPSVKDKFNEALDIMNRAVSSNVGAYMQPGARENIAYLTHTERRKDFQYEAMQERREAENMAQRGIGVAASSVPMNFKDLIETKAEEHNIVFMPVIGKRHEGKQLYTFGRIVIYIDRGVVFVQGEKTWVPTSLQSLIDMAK
In a few lines: (§1)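 Free RNA oligos (0 nM to 30 μM) competed for 1 h at 4°C in HEK293-FT lysate (2.5 mg protein/well) before a 30 min, 4°C pulldown with the same oligos on NHS-Sepharose beads. Bound proteins were quantified by label-free LC-MS/MS and normalised to the control. Kd was found by multiplying EC50, from a four-parameter log-logistic fit, by a protein-dependent depletion factor.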

The target in a further data set is T2, KHSRP (UniProt Q92945).
T2 sequence: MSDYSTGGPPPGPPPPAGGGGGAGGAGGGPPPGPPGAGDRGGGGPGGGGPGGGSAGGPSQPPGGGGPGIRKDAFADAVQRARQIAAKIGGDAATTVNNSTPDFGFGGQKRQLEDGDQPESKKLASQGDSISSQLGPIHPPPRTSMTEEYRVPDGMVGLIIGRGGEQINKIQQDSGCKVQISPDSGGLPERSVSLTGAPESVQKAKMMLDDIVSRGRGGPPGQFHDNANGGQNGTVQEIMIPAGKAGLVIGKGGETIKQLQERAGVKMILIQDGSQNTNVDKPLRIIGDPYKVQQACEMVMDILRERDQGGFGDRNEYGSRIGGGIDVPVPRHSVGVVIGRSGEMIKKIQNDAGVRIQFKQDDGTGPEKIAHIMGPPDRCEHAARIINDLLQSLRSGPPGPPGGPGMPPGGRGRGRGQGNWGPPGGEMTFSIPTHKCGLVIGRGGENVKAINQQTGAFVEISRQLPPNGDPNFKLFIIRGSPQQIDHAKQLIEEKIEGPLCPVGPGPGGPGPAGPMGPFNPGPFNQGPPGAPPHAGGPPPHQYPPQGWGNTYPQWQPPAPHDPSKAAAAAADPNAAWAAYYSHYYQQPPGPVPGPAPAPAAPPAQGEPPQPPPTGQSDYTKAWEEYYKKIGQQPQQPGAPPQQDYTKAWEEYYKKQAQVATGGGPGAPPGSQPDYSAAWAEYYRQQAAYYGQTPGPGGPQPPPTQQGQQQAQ
In a few lines:
as §1

For another data set, the target named is ZCCHC24 (UniProt Q8N2G6). In a few lines: as §1
Another data set addresses T3, CMTR1 (UniProt Q8N1G2).
T3 sequence: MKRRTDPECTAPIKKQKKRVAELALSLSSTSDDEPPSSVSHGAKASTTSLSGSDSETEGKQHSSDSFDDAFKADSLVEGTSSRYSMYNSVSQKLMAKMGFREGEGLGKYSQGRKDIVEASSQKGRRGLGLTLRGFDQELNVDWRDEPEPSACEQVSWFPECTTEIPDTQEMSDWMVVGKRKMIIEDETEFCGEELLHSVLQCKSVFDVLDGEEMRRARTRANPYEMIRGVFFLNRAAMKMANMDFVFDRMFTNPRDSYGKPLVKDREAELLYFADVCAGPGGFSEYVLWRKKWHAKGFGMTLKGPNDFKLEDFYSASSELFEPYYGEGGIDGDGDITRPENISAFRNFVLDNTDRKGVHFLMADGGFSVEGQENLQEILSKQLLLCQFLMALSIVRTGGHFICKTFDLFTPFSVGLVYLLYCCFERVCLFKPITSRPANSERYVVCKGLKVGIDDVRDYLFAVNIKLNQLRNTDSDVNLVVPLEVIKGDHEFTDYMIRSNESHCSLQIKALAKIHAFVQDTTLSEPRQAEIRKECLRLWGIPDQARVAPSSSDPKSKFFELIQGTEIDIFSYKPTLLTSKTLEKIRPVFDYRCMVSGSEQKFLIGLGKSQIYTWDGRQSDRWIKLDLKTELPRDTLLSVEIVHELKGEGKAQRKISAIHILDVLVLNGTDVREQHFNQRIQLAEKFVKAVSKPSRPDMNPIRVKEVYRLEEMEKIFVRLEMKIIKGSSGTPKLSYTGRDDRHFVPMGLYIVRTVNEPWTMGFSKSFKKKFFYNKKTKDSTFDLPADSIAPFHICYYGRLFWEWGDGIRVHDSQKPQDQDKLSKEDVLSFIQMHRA
In a few lines: as §1

Sequence of ZCCHC24 (Q8N2G6 whole entry): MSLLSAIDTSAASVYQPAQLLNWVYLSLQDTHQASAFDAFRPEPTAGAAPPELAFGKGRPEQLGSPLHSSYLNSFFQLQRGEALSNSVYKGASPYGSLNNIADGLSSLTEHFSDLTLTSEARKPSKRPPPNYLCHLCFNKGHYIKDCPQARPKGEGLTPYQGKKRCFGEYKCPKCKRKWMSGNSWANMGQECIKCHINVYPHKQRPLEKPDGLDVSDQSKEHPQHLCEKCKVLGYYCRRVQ

The term Kd denotes the free concentration of one partner at which half of the binding sites on the other are occupied at equilibrium, for simple one-to-one binding. A lower Kd goes with higher affinity. As for AAUAAA, the Kd worked out at 569 nM with TFIP11, 310 nM with KHSRP, 207 nM in the data set with ZCCHC24 and 209 nM in the data set with CMTR1.
UAUUUAU: the Kd with TFIP11 amounted to 1230 nM; with KHSRP, 928 nM; with ZCCHC24, 1910 nM; with CMTR1, 591 nM.
